The values that follow come from the supplement of paper PMC10567573.

First the molecules themselves.
B1: GNB5 (parent)
chain: YYPSGDAFASGSDDATCRLYDLRA
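Further: lentivirally expressed fusions sorted by FACS into six bins by GFP to DsRed ratio, PSI derived from sequencing read proportions per bin multiplied by bin number.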

This series covers variants of B1. As to the kind of experiment: protein stability index of a GFP-peptide fusion (GPS, HEK-293T) (PSI 1-6); higher = more stable. Conditions: c terminus: a fixed tail appended.
Consider YYPSGDADASGSDDATCRLYDLRA [F8D], for which the protein stability index stood at 4.4.

On to YYPSGDAHASGSDDATCRLYDLRA [F8H], for which the protein stability index was determined as 4.09.

With YYPSGDASASGSDDATCRLYDLRA [F8S], the protein stability index was 4.11.

For YYPSGDALASGSDDATCRLYDLRA [F8L], the protein stability index amounted to 3.6.

On to YYPSGDAKASGSDDATCRLYDLRA [F8K], for which the protein stability index came to 4.19.

Turning to YYPSGDATASGSDDATCRLYDLRA [F8T], the protein stability index worked out at 4.02.

Turning to YYPSGDARASGSDDATCRLYDLRA [F8R], the protein stability index turned out to be 3.76.

Regarding YYPSGDAMASGSDDATCRLYDLRA [F8M], the protein stability index turned out to be 3.53.

For YYPSGDAYASGSDDATCRLYDLRA [F8Y], the protein stability index was 2.61.

YYPSGDAVASGSDDATCRLYDLRA [F8V]: the protein stability index came out at 4.07.

In the case of YYPSGDAEASGSDDATCRLYDLRA [F8E], the protein stability index was found to be 4.5.

As for YYPSGDANASGSDDATCRLYDLRA [F8N], the protein stability index worked out at 4.23.

Take YYPSGDAPASGSDDATCRLYDLRA [F8P]: the protein stability index worked out at 4.12.

With YYPSGDAGASGSDDATCRLYDLRA [F8G], the protein stability index came out at 4.09.

For the variant YYPSGDAWASGSDDATCRLYDLRA [F8W], the protein stability index turned out to be 2.62.

Regarding YYPSGDACASGSDDATCRLYDLRA [F8C], the protein stability index amounted to 3.87.

For the variant YYPSGDAIASGSDDATCRLYDLRA [F8I], the protein stability index was 3.42.

Consider YYPSGDAQASGSDDATCRLYDLRA [F8Q], for which the protein stability index turned out to be 3.71.

With YYPSGDAAASGSDDATCRLYDLRA [F8A], the protein stability index is 4.18.

For the variant YYPSGDAFASGVDDATCRLYDLRA [S12V], the protein stability index turned out to be 2.04.

Take YYPSGDAFASGIDDATCRLYDLRA [S12I]: the protein stability index was determined as 2.24.

As to YYPSGDAFASGTDDATCRLYDLRA [S12T], the protein stability index came to 2.79.

Take YYPSGDAFASGQDDATCRLYDLRA [S12Q]: the protein stability index worked out at 2.08.

For the variant YYPSGDAFASGCDDATCRLYDLRA [S12C], the protein stability index came to 2.98.

On to YYPSGDAFASGMDDATCRLYDLRA [S12M], for which the protein stability index was determined as 2.13.

Consider YYPSGDAFASGPDDATCRLYDLRA [S12P], for which the protein stability index was 2.17.

With YYPSGDAFASGFDDATCRLYDLRA [S12F], the protein stability index was determined as 2.41.

As to YYPSGDAFASGNDDATCRLYDLRA [S12N], the protein stability index came to 2.41.

Turning to YYPSGDAFASGEDDATCRLYDLRA [S12E], the protein stability index was 2.89.

As to YYPSGDAFASGHDDATCRLYDLRA [S12H], the protein stability index was 2.92.

Regarding YYPSGDAFASGYDDATCRLYDLRA [S12Y], the protein stability index turned out to be 2.98.

As for YYPSGDAFASGKDDATCRLYDLRA [S12K], the protein stability index is 2.21.

On to YYPSGDAFASGGDDATCRLYDLRA [S12G], for which the protein stability index came to 1.74.

YYPSGDAFASGADDATCRLYDLRA [S12A]: the protein stability index was 2.76.

With YYPSGDAFASGRDDATCRLYDLRA [S12R], the protein stability index was determined as 2.17.

For YYPSGDAFASGDDDATCRLYDLRA [S12D], the protein stability index worked out at 3.23.

In the case of YYPSGDAFASGWDDATCRLYDLRA [S12W], the protein stability index is 2.74.

On to YYPSGDAFASGLDDATCRLYDLRA [S12L], for which the protein stability index came out at 2.16.

For the variant YYPSGDAFASYSDDATCRLYDLRA [G11Y], the protein stability index was found to be 1.98.

Regarding YYPSGDAFASASDDATCRLYDLRA [G11A], the protein stability index stood at 2.23.

On to YYPSGDAFASCSDDATCRLYDLRA [G11C], for which the protein stability index came to 2.09.

YYPSGDAFASNSDDATCRLYDLRA [G11N]: the protein stability index was 2.64.

Consider YYPSGDAFASWSDDATCRLYDLRA [G11W], for which the protein stability index was found to be 2.11.

On to YYPSGDAFASESDDATCRLYDLRA [G11E], for which the protein stability index came out at 2.81.

Take YYPSGDAFASKSDDATCRLYDLRA [G11K]: the protein stability index stood at 1.94.

As to YYPSGDAFASDSDDATCRLYDLRA [G11D], the protein stability index is 2.74.

As for YYPSGDAFASVSDDATCRLYDLRA [G11V], the protein stability index came to 1.94.

As to YYPSGDAFASMSDDATCRLYDLRA [G11M], the protein stability index was 1.66.

In the case of YYPSGDAFASISDDATCRLYDLRA [G11I], the protein stability index was 1.89.

For the variant YYPSGDAFASQSDDATCRLYDLRA [G11Q], the protein stability index came out at 2.14.

Regarding YYPSGDAFASTSDDATCRLYDLRA [G11T], the protein stability index is 2.28.

Regarding YYPSGDAFASFSDDATCRLYDLRA [G11F], the protein stability index came to 1.99.

With YYPSGDAFASSSDDATCRLYDLRA [G11S], the protein stability index turned out to be 2.08.

As to YYPSGDAFASHSDDATCRLYDLRA [G11H], the protein stability index is 2.44.

Take YYPSGDAFASLSDDATCRLYDLRA [G11L]: the protein stability index amounted to 2.89.

In the case of YYPSGDAFASRSDDATCRLYDLRA [G11R], the protein stability index stood at 1.83.

Consider YYPSGDAFASPSDDATCRLYDLRA [G11P], for which the protein stability index worked out at 2.31.

For the variant YYPSIDAFASGSDDATCRLYDLRA [G5I], the protein stability index came to 2.8.

YYPSKDAFASGSDDATCRLYDLRA [G5K]: the protein stability index turned out to be 2.89.

With YYPSSDAFASGSDDATCRLYDLRA [G5S], the protein stability index was 3.09.

Turning to YYPSEDAFASGSDDATCRLYDLRA [G5E], the protein stability index amounted to 3.96.

YYPSCDAFASGSDDATCRLYDLRA [G5C]: the protein stability index came out at 3.39.

Turning to YYPSWDAFASGSDDATCRLYDLRA [G5W], the protein stability index was found to be 2.37.

For YYPSRDAFASGSDDATCRLYDLRA [G5R], the protein stability index amounted to 3.12.

YYPSMDAFASGSDDATCRLYDLRA [G5M]: the protein stability index was found to be 2.88.

Take YYPSVDAFASGSDDATCRLYDLRA [G5V]: the protein stability index stood at 3.17.

On to YYPSQDAFASGSDDATCRLYDLRA [G5Q], for which the protein stability index stood at 2.7.

Regarding YYPSLDAFASGSDDATCRLYDLRA [G5L], the protein stability index came out at 2.76.

In the case of YYPSDDAFASGSDDATCRLYDLRA [G5D], the protein stability index came to 3.77.

Take YYPSHDAFASGSDDATCRLYDLRA [G5H]: the protein stability index stood at 2.81.

For the variant YYPSYDAFASGSDDATCRLYDLRA [G5Y], the protein stability index worked out at 2.4.

Turning to YYPSTDAFASGSDDATCRLYDLRA [G5T], the protein stability index stood at 3.56.

For the variant YYPSPDAFASGSDDATCRLYDLRA [G5P], the protein stability index came to 2.69.

Regarding YYPSFDAFASGSDDATCRLYDLRA [G5F], the protein stability index turned out to be 2.61.

On to YYPSADAFASGSDDATCRLYDLRA [G5A], for which the protein stability index came to 2.95.

With YYPSNDAFASGSDDATCRLYDLRA [G5N], the protein stability index was 3.88.

Turning to YYPSGDAFASGSCDATCRLYDLRA [D13C], the protein stability index worked out at 1.56.

On to YYPSGDAFASGSADATCRLYDLRA [D13A], for which the protein stability index was 1.86.

Turning to YYPVGDAFASGSDDATCRLYDLRA [S4V], the protein stability index stood at 2.56.

YYPYGDAFASGSDDATCRLYDLRA [S4Y]: the protein stability index is 2.82.

In the case of YYPWGDAFASGSDDATCRLYDLRA [S4W], the protein stability index came to 2.49.

For the variant YYPFGDAFASGSDDATCRLYDLRA [S4F], the protein stability index came out at 2.29.

With YYPKGDAFASGSDDATCRLYDLRA [S4K], the protein stability index came to 3.33.

YYPMGDAFASGSDDATCRLYDLRA [S4M]: the protein stability index turned out to be 3.45.

For the variant YYPRGDAFASGSDDATCRLYDLRA [S4R], the protein stability index is 2.46.

As to YYPCGDAFASGSDDATCRLYDLRA [S4C], the protein stability index turned out to be 2.16.

For the variant YYPIGDAFASGSDDATCRLYDLRA [S4I], the protein stability index was 2.8.

In the case of YYPEGDAFASGSDDATCRLYDLRA [S4E], the protein stability index was determined as 3.72.

Consider YYPTGDAFASGSDDATCRLYDLRA [S4T], for which the protein stability index turned out to be 2.86.

As for YYPAGDAFASGSDDATCRLYDLRA [S4A], the protein stability index came out at 3.06.

Regarding YYPGGDAFASGSDDATCRLYDLRA [S4G], the protein stability index was determined as 3.14.

On to YYPDGDAFASGSDDATCRLYDLRA [S4D], for which the protein stability index was 3.56.

Regarding YYPPGDAFASGSDDATCRLYDLRA [S4P], the protein stability index turned out to be 3.78.

Turning to YYPLGDAFASGSDDATCRLYDLRA [S4L], the protein stability index turned out to be 2.52.
